# Tests used:
# Test in all cases: ELISA on streptavidin-immobilized biotinylated 15mer peptides; area under the signal vs antibody concentration curve
# [1] = target: residue mutated to A: I
# [2] = target: residue mutated to A: T
# [3] = target: residue mutated to A: N
Binder,percent of binding to the natural peptide (AUC) [2],further results
"Ab7955 (antibody, V domains shown) VH: LVESGGGVVRPGRSLRLSCVASGFTFNAYGMHWVRQGPGKGLEWLAVISYEGKTVYYADSVKDRFTISRDNSRNTVSLHLNNLRGEDTAVYYCAKGSASAAVLQHWGQGTLVSVTS VL: MTQSPGSLAVSLGSRATINCKSSRSLLYRSNNKNYLAWYQQKPGQSPRLLIYWASSRESGVPDRFSGGGSGTSFTLTISSLQAEDVAVYYCQQYFNPPWTFGQGTKVEIK",–,percent of binding to the natural peptide (AUC) [1]: 8%
"Ab7960/293i (antibody, V domains shown) VH: LVESGGGVVQPGKSLRLSCVASGFSFSTYGMHWVRQAPGKGLEWVAVMSFDGKTKYYADSVKGRFTISRDNPKNTLYLQMNSLRSEDTAVYYCAKGGAAAAVFDSWGPGILLTVSS VL: MTQSPNSLAVSLGGRATINCKASQSILYRSNNKNYLAWYQHKAGQPPKLLIYWASTRESGVPERFSGSGSRTDFTLTINGLQAEDVAVYYCQQYYNPPWTFGQGTKVEIK",4%,–
"Ab7961/293i (antibody, V domains shown) VH: LVESGGGVVQPGKSLRLSCVASGFTFSSYGMHWVRQAPGKGLEWVAVMSFDGKTKYYADSVKGRFTISRDNPKNTLYLQMNSLRSEDTAVYYCAKGGAAAAVFDSWGQGILLTVSS VL: MTQSPNSLAVSLGGRATINCKTSQSILYRSNNKNYLAWYQHKSGQPPKLLIYWASTRESGVPDRFSGSGSRTDFTLTISGLQAEDVAVYYCQQYYNPPWTFGQGTKVEIK",–,percent of binding to the natural peptide (AUC) [3]: 4%
"Ab7979 (antibody, V domains shown) VH: LVESGGGVVQPGKSLRLSCVASGFTFSTYGMHWVRQAPGKGLEWVAVMSFDGKTKYYADSVKGRFTISRDNPKNTLYLQMNSLRSEDTAVYYCAKGGAAAAVFDSWGQGILLTVSS VL: MTQSPNSLAVSLGGRATINCKTSQSILYRSNNKNYLAWYQHKPGQPPKLLIYWASTRESRVPDRFSGSGSRTDFTLTISGLQAEDVAVYYCQQYYNPPWTFGQGTKVEIK",34%,–

# Reference: patent US20210061891A1
